Reference: US8445431
No end group written: not given here.

How the values were obtained:
[1] = target: recombinant isoform of human Angiotensin Converting Enzyme (rhACE) corresponding to the ectodomain somatic ACE (human), P12821; experiment: cell-based or functional assay
[2] = target: recombinant isoform of human Angiotensin Converting Enzyme (rhACE) corresponding to the ectodomain somatic ACE (human) (UniProt P12821); experiment: cell-based or functional assay
[3] = target: recombinant isoform of human Angiotensin Converting Enzyme (rhACE) corresponding to the ectodomain somatic ACE (human) (UniProt P12821); experiment: Enzyme inhibition of rhACE with fluorogenic substrate, Dixon plot and KI=IC50/(1+[S]/Km); 45 min pre-incubation, hydrolytic conditions

recombinant isoform of human Angiotensin Converting Enzyme (rhACE) corresponding to the ectodomain somatic ACE (human), P12821, sequence (P12821 30-1256): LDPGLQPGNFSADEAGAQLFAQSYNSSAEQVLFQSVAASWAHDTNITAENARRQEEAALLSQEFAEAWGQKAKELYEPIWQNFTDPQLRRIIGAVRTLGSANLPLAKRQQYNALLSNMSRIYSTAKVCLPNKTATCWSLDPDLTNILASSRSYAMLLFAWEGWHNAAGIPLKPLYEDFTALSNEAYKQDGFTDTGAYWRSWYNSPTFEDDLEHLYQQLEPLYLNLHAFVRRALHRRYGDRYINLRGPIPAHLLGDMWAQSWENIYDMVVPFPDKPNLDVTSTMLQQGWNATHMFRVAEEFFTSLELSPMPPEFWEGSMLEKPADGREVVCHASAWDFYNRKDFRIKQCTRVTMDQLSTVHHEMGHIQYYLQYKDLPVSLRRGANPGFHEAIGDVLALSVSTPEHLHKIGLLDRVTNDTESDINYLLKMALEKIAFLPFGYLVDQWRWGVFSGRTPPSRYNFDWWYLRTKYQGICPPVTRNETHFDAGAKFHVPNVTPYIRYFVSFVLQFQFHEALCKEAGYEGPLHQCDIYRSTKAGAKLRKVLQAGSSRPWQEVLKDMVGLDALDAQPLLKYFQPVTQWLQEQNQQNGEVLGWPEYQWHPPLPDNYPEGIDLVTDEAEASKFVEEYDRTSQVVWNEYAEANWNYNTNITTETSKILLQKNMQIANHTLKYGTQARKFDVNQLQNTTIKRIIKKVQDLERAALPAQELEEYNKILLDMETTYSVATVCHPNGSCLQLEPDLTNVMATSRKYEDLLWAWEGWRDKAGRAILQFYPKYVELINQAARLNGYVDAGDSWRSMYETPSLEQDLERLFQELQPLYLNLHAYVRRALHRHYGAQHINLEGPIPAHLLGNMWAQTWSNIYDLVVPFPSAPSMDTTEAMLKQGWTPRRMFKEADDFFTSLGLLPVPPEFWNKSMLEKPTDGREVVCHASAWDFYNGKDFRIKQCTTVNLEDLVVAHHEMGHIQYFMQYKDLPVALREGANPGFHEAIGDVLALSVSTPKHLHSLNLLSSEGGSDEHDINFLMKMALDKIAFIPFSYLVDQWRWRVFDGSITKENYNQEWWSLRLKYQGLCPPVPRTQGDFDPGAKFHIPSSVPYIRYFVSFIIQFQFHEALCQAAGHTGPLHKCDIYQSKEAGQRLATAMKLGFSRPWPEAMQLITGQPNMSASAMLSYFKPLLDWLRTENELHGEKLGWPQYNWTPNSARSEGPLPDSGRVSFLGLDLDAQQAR
recombinant isoform of human Angiotensin Converting Enzyme (rhACE) corresponding to the ectodomain somatic ACE (human), sequence (P12821 30-1256): as above

IC50 of rhACE inhibition (fluorogenic substrate cleavage) [1] [µM]	IC50 of rhACE inhibition (fluorogenic substrate cleavage) [2] [µM]	Ki [3] [µM]	Binder
> 100			YIHPF [TyrIleHisProPhe (YIHPF, Angiotensin II 4-8) peptide, metal-free]
> 100			KGHK [LysGlyHisLys (KGHK) peptide, metal-free]
> 100			YIHPF (also: Cu(II) complex bound by ATCUN motif) [[YIHPF-Cu]- copper(II) complex of YIHPF]

Further lines, the binder ahead of its results:

Binder	IC50 of rhACE inhibition (fluorogenic substrate cleavage) [1] [µM]	IC50 of rhACE inhibition (fluorogenic substrate cleavage) [2] [µM]	Ki [3] [µM]
GGH [GlyGlyHis (GGH) peptide, metal-free]	> 100		
KGHK (also: Cu(II) complex bound by ATCUN motif (free N-term, two peptide N, His3)) [[KGHK-Cu]+ copper(II) complex of KGHK]		11	4
Gly-Gly-His (also: Cu(II) complex bound by ATCUN motif) [[GGH-Cu]- copper(II) complex of GGH]	> 100		
